This note sets out measurements from patent US20160369008A1 (Astellas, published 2016).

For test [1], the target named is T1, active PAI-1 in monkey plasma (cynomolgus monkey, UniProt G7P138 24-402).
T1 construct: Native protein in diluted plasma
Briefly: ELISA: inhibition of the capture of active PAI-1 of monkey plasma on immobilised uPA (Example 9). On the procedure:
(§1) The evaluation of an inhibitory activity on active PAI-1 in human plasma was carried out according to the method of Example 5. The evaluation of an inhibitory activity on active PAI-1 in monkey plasma was carried out using monkey plasma instead of human plasma in the method described in Example 5. With regard to the monkey plasma, the plasma was diluted using 0.1% BSA-containing PBS, such that the monkey plasma was diluted 120-fold when a plasma-antibody mixture was prepared. For both of two evaluation systems, the final concentration of each antibody was used in a range from 300 ng/mL to 0.3 ng/mL (7-step dilution). As a calibration curve sample, recombinant active human PAI-1 (Molecular Innovations Inc., PAI-A) was used which had been diluted in 7 steps in a range from 3000 pg/mL to 3 pg/mL with 0.1% BSA-containing PBS.
(§2) The concentration of each active PAI-1 was calculated using a calibration curve. The test was carried out in duplicate for each antibody, and the average value was calculated. […] Each of the calculated active PAI-1 inhibitory rates was analyzed to calculate IC50 values of the antibodies by four-parameter logistic curve regression.

In test [2] the target is recombinant active human PAI-1 (human, UniProt P05121 24-402). Briefly: cell-based or functional assay.
The target of test [3] is T2, active PAI-1 in human plasma (human, UniProt P05121 24-402).
T2 construct: Native protein in diluted plasma; also called human plasma-derived active PAI-1; active human PAI-1 in the plasma
Description: ELISA: inhibition of the capture of active PAI-1 of human plasma on immobilised uPA. As for the experimental part:
After the blocking agent in the assay plate was removed by reverse centrifugation, the pre-incubated plasma-antibody mixtures, the calibration curve sample, and the control sample were added at 100 μL/well to the assay plate which was then allowed to stand at room temperature for 30 minutes. The plate was washed three times with a washing solution (0.05% Tween-20-containing TBS), and anti-PAI-1 antibodies (Progen Biotechnik, MA-33H1F7) diluted 3,000-fold with a blocking agent (NACALAI TESQUE, INC., 03953-95) solution which had been diluted 20-fold in PBS were added thereto at 100 μL/well. […] An alkaline phosphatase substrate (Chemiluminescent AP; SurModics, APU4-0100-01) 5-fold diluted in a 0.1 mM magnesium chloride aqueous solution containing 2 mM Tris (pH 9.8) was added at 100 μL/well, and the signal value was measured using an EnVision counter (PerkinElmer Co., Ltd.).
The concentration of active human PAI-1 was calculated using a calibration curve. The test was carried out in duplicate for each antibody, and the average value was calculated. […] The calculated active human PAI-1 inhibitory rate was analyzed to calculate IC50 values of the antibodies by four-parameter logistic curve regression.

The target in test [4] is active monkey PAI-1 in complex with vitronectin (monkey). Description: ELISA, VTN-monkey PAI-1 complex on the plate.
In test [5] the target is T2, active PAI-1 in human plasma. Description: ELISA: inhibition of the capture of active PAI-1 of human plasma on immobilised uPA (Example 9). On the procedure:
as §1, §2

Test [6] deals with T3, active human PAI-1 in complex with vitronectin (human, UniProt P05121 24-402; P04004 20-478).
T3 construct: Vitronectin was coated on the plate and active PAI-1 was captured on it; also called VTN-PAI-1 complex; VTN-PAI-1
Description: ELISA, VTN-PAI-1 complex on the plate. As for the experimental part: An HRP-labeled goat anti-mouse Ig antibody (Southern Biotech, 1010-05) for the detection of a test antibody having an Fe region of a mouse antibody and an HRP-labeled rabbit anti-human Ig antibody (Southern Biotech, 6145-05) for the detection of a test antibody having an Fc region of a human antibody are used as the detection antibody. After incubation at room temperature for 30 minutes, the plates were washed three times with a washing solution. A color developing solution contained in a peroxidase color development kit (Sumitomo Bakelite Co., Ltd.) was added at 100 μL/well, followed by allowing to stand at room temperature for about 15 minutes, 100 μL of a reaction stop solution contained in the color development kit was added, and then the OD450 value was measured using an EnVision counter (PerkinElmer Co., Ltd.).
For each plate, the test of each antibody was carried out in duplicate, and the average value was calculated. In connection with the calculation of a PAI-1 binding rate at each concentration of each antibody, the measurement value of a well to which 0.1% BSA-containing PBS had been added instead of an antibody was taken to be 0%, and the measurement value of the maximum concentration in each antibody was set to 100%. […] The calculated PAI-1 binding rate was analyzed to calculate EC50 values of the antibodies by four-parameter logistic curve regression.

The next test concerns the target T4, latent human PAI-1 (human, UniProt P05121 24-402).
T4 construct: Same protein as active PAI-1 but in the latent conformation; also called recombinant latent human PAI-1; latent PAI-1
Briefly: ELISA, latent human PAI-1 on the plate.

Test [7] addresses T3, active human PAI-1 in complex with …. Briefly: ELISA, VTN-PAI-1 complex on the plate; 100% set to the signal of MA56-A7C10 at its maximum concentration.
Test [8] deals with T5, human PAI-1 in complex with tPA (human, UniProt P05121 24-402; P00750 36-562).
T5 construct: tPA was coated on the plate and active PAI-1 was captured on it; also called tPA-PAI-1 complex; Human tPA-PAI-1
Briefly: ELISA, tPA-PAI-1 complex on the plate.

Test [9] has as its target T6, human PAI-1 in complex with uPA (human, UniProt P05121 24-402; P00749 21-431, limits assumed).
T6 construct: uPA was coated on the plate and active PAI-1 was captured on it; also called uPA-PAI-1 complex; Human uPA-PAI-1
Briefly: ELISA, uPA-PAI-1 complex on the plate.

Sequence of active monkey PAI-1 in complex with vitronectin (monkey) (P04004 20-478, one chain of several): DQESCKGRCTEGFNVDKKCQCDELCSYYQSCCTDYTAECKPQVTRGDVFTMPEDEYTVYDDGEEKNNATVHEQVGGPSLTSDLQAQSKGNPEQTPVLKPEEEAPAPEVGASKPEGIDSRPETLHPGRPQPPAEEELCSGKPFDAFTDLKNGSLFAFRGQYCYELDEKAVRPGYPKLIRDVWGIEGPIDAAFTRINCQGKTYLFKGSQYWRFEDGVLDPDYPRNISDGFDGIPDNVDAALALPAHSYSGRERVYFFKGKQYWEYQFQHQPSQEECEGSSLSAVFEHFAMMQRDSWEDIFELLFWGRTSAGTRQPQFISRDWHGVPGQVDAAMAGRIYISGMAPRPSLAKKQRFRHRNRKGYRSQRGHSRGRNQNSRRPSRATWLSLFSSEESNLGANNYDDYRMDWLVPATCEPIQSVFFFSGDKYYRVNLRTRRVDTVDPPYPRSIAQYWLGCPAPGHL

B1: fully human HOT-1 (antibody, human IgG1, kappa, V domains shown)
VH: EVQLVESGGGVVRPGGSLRLSCAASGFTFDDHGMTWVRQAPGKGLEWVSGINWNGARTVYADSVKGRFTISRDNAKNSLYLHLISLRAEDTALYHCARDRGLGLFDYWGQGTLVTVSS
VL: DIQMTQSPSTLSASVGDRVTITCRASQSISSWLAWYQQKPGKVPKILIYKASRLESGVPSRISGSGSGTEFTLTISSLQPDDFATYYCQQYNGYSYTFGQGTKLEIKR
notes: Human Ig gamma1 / human kappa constant regions; also called fully human antibody of HOT-1; fully human HOT-1 antibody
For the molecule B1, the IC50 in [1] turned out to be 0.037 µg/mL; in [3], 0.006 µg/mL; in test [5] it was 0.0042 µg/mL. In addition, in test [2], the “EC50 value, taking the activity of uPA as an indicator (cleavage of a fluorogenic uPA substrate peptide)” value came out at 0.0127 µg/mL. The EC50 is 0.0036 µg/mL in test [4] and 0.0042 µg/mL in test [6].

B2: HOT-1 (chimeric antibody) (antibody, V domains shown)
VH: EVQLVESGGGVVRPGGSLRLSCAASGFTFDDHGMTWVRQAPGKGLEWVSGINWNGARTVYADSVKGRFTISRDNAKNSLYLHLISLRAEDTALYHCARDRGLGLFDYWGQGTLVTVSS
VL: DIQMTQSPSTLSASVGDRVTITCRASQSISSWLAWYQQKPGKVPKILIYKASRLESGVPSRISGSGSGTEFTLTISSLQPDDFATYYCQQYNGYSYTFGQGTKLEIKR
B2 yielded an IC50 in test [3] of 0.0113 µg/mL.

B3: MA-33B8 (antibody, V domains shown)
VH: not shown
VL: DIVMTQSPSSLAVSVGEKVTMSCKSSQSLLNIIKQKNCLAWYQQKPGQSPKLLIYWASTRESGVPDRFTGSGSGTDFTLTISSVKAEDLAVYYCQQYYSYPYTFGGGTKLEIK
With B3, the EC50 with latent human PAI-1 is 0.64 µg/mL; in test [7], 5.68 µg/mL; in test [8], 0.0228 µg/mL; in test [9], 0.0129 µg/mL.

B4: MA-33H1F7 (antibody, V domains shown)
VH: QVQLQQSGAEVVKPGASVKLACTASGFNIKDTYIHWVKQGPEQGLEWIGRIDPANGNTKYDSKFQDKATITADTSSNTAYLHLSSLTSEDTAVYYCVRGDYDYVYFDYWGQGTTVTVSS
VL: DIQMTQSPSSLSASLGDRVTISCRASQDISNFLDWYQQKPDGTVKLLIYYTSRLHSGVPSRFSGSGSGTDYSLTISKLEQEDIATYFCQQGNTFPPTFGGGTKLEIK
Consider B4, for which the EC50 in the test with latent human PAI-1 was found to be 0.0136 µg/mL; in test [8], 0.0117 µg/mL; in test [9], 0.0127 µg/mL; in test [6], 0.0143 µg/mL.
